Reference: US20210275590A1 (LEGEND BIOTECH IRELAND, published 2021)
Positions count from the first letter of the chain named.

B1: AS58930 sdAb (VHH)
VHH: AVQLVESGGGLVQAGGSLRLSCTASGSILRTYEMGWYRQAPGSQRELVASITSDGDTNYVDSVKGRFTISRDNGKNMVYLQMNSLKPDDTAVYYCNAVILSPSYSMRTSHWGQGTQVTVSS
notes: Camel sdAb; also called AS58930C
B2: AS49264 sdAb (VHH)
VHH: EVQLVESGGGSVQAGGSLRLSCAASGYTYSINCMGWFRQAPGKEREGVAVISTGGGRTDYRDSVKGRFTISQDNAKNTVYLQMNSLKPEDTAMYYCAGKTTYPGYGCGLGRSAYNYWGQGTQVTVSS
notes: Camel sdAb
B3: AS60399 sdAb (VHH)
VHH: QVKLEESGGGLVQEGGSLRLSCAASGTIYTDSTIYWYRQAPGKQRELVASITRGGDTKYVDSVKGRFAISSDNAKNTVYLQMNSLKPEDTAVYYCNLYYRTGPSSYYRNDWGQGTQVTVSS
notes: Camel sdAb
B4: AS49814 sdAb (VHH)
VHH: QIQLVESGGGSVQAGGSLRLSCVASGYIGGHYYMGWFRQAPGKEREGVAAIDIDSDGRTRYAGSVQGRFTISQDNAKNTLHLQMSSLKPEDTGMYYCAVGVGWVPARLTPQAVSYWGKGTLVTVSS
notes: Camel sdAb
B5: AS49175 sdAb (VHH)
VHH: EVQLAESGGGLVQAGGSLRLSCTASGFTFDDYVMGWFRQAPGKEREGVSCISWSGDTTYYADSVKGRFTASRDNAKNTLYLQMNSLKPEDTAMYYCAADQGKCSLASAEPDDMDYWGRGTLVTVSS
notes: Camel sdAb
B6: AS50073 sdAb (VHH)
VHH: B5 VHH with E1Q, A5V, D31N, S52G, D56G, T57S, A70I, A106G, E109G, P110A
notes: Camel sdAb
B7: AS59101 sdAb (VHH)
VHH: AVQLVESGGGLVQPGGSLRLSCAVSGIYYSINLMGWYRQAPGKPRELAASITDSGITNYADSVKGRFTISRDNAKNTVHLQMNNLKPEDTAVYYCKPMGVNWGQGIQVTVSS
notes: Camel sdAb
B8: AS49889 sdAb (VHH)
VHH: EVQLVESGGGSVQAGGSLRLSCVASGYTWCRYDMSWYRQAPGKEREFVSGFDNDGTTSYADSVKGRFTISQDNDKNTVYLQMNSLKPEDTAMYYCKEDRSRGSLDGRVCPLSYDNWGQGTQVTVSS
notes: Camel sdAb
B9: AS50502 sdAb (VHH)
VHH: EVQLVESGGGSVQAGGSLRLSCAAPGYTYCTYDMMWYRQALGKEREFVSAVYTDGSTLYADSVKGRFTISQDNAKNTLYLQMNSLKPEDTAMYYCKTETAVTYDKPCDFWGQGTQVTVSS
notes: Camel sdAb
B10: AS67190 sdAb (VHH)
VHH: QVQLVESGGGLVQAGGSLRLSCAASGNVFRFNIMGWYRQAPGNQRELVASIDDGGDRSYADSVEGRFTISRENGKKIMYLQMNSLKPEDTAVYYCAAGLGTYLNGRVSMATNYWGQGTQVTVSS
notes: Camel sdAb
B11: AS49873 sdAb (VHH)
VHH: EVQLVESGGGSVQAGGSLRLSCVASGYTYGINCMGWFRQAPGKEREGIAAISTGGGTTGVADSVKGRFTISQDNAKNTVYLQMNSLKPEDTAMYYCAARSTYSGYACVYSEVNGYNYRGQGTQVTVSS
notes: Camel sdAb
B12: AS49226 sdAb (VHH)
VHH: EVQLAESGGGSVQAGGSLRLSCAASGVTFSSTSVAWFRQAPGKEREGVAYIYTGDSSTYYADSVKGRFTIAQDNAKNAVYLQMNSLKPEDTAMYYCAADGFLLNHRSYQYWGQGTQVTVSS
notes: Camel sdAb
B13: AS67147 sdAb (VHH)
VHH: EVQLVESGGGLVQAGGSLRLSCAASGDTFSFAAMGWYRQAPGKQRELVASISFSGGESTVYANSVRGRFTISGDNAKNRVSLEMNNLKPEDTAVYYCTAKRGPYLPGPEYWGQGTQVTVSS
notes: Camel sdAb
B14: AS66873 sdAb (VHH)
VHH: QVQLVESGGGLVQPGGSLRLSCAASGSIFSITAMGWYRQAPGKQRELVATVTSGGSTKYVESVKGRFTISNDNAKNTVYLQMNSLKPEDTAVYYCWADIVARWNSDYNVYDDYWGQGTQVTVSS
notes: Camel sdAb
B15: AS49902 sdAb (VHH)
VHH: EVQLVESGGGLVQAGGSLRLSCTASGFTFDDYVMGWFRQAPGKEREGVSCISWSGDTTYYADSVKGRFTVSRDNAKNTLYLQMNSLKPEDTAMYYCAADQSLCSLAPPYNYAYWGQGTQVTVSS
notes: Camel sdAb

What follows are binders tested against T1, Recombinant human CD33 protein (human, UniProt P20138 18-259) (assay: SPR (BIACORE T200), crude sdAb captured via affinity tag, 100 nM human CD33 as analyte).
T1 construct: Obtained commercially; also called huCD33
T1 sequence (P20138 18-259 limits assumed): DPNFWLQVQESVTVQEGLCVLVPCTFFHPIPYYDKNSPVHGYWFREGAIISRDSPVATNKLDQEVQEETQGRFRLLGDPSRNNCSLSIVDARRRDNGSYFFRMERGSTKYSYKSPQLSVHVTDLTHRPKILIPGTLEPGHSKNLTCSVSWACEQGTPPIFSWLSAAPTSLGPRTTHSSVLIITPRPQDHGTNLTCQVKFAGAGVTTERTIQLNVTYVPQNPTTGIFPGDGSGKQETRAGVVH
Experimental: The sdAb proteins in the supernatant were analyzed for their ability to bind to CD33 ECD proteins by ELISA and CD33-overexpressing MV4-11 cell lines by FACS. All binders were sequenced and some were subjected to for further characterization including affinity ranking by surface plasmon resonance (SPR) on a BIACORE® T200 instrument. The experiments were carried out as follows: the crude sdAb proteins were captured through an affinity tag onto the sensorchip. High-concentration (100 nM) of human CD33 flowed over the sensorchip surface, and was allowed to bind the antibody fragments. On-rate (kₒₙ) and off-rate (koff) were roughly calculated based on the association and dissociation of one antigen concentration, and were used to estimate the equilibrium dissociation constant (KD).

Binding result, binds:
B1
B2
B3
B4
B5
B6
B7
B8
B9
B10
B11
B12
B13
B14
B15
